Laboratory results reported in patent US20180155451A1 (published 2018).

Molecular target: T1, FcγRIa extracellular domain with C-terminal His tag (human, UniProt P12314 16-292)
T1 construct: extracellular domain; Expressed in FreeStyle293 cells; analyte in Biacore; also called FcgRI; FcgRIa
Test: SPR Biacore, antibody captured, FcγRIa analyte; vs GpH7-B3/GpL16-k0 = 100

T1 sequence (P12314 16-292): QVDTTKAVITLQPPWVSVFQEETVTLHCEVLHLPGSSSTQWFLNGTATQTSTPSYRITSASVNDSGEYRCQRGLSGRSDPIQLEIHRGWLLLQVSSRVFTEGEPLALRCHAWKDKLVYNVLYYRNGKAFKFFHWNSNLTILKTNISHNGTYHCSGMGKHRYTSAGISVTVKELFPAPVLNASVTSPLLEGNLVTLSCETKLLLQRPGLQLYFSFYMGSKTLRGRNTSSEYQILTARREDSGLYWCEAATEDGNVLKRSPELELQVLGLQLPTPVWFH

B1: GpH7-B3 variant P271_02A/GpL16-k0 (Ho Ab) (antibody, human IgG1, kappa)
heavy: not shown
light: DIVMTQSPLSLPVTPGEPASISCQASESLVHSNRNTYLHWYLQKPGQSPQLLIYKVSNRFSGVPDRFSGSGSGTDFTLKISRVEAEDVGVYYCSQNTHVPPTFGQGTKVEIERTVAAPSVFIFPPSDEQLKSGTASVVCLLNNFYPREAKVQWKVDNALQSGNSQESVTEQDSKDSTYSLSSTLTLSKADYEKHKVYACEVTHQGLSSPVTKSFNRGEC
notes: Ho Ab: alteration in both H chains
In the case of B1, the Ho/Con_1a is reported as 102 relative (control = 100).

B2: GpH7-B3 variant A330_08L/GpL16-k0 (Ho Ab) (antibody, human IgG1, kappa)
heavy: not shown
light: DIVMTQSPLSLPVTPGEPASISCQASESLVHSNRNTYLHWYLQKPGQSPQLLIYKVSNRFSGVPDRFSGSGSGTDFTLKISRVEAEDVGVYYCSQNTHVPPTFGQGTKVEIERTVAAPSVFIFPPSDEQLKSGTASVVCLLNNFYPREAKVQWKVDNALQSGNSQESVTEQDSKDSTYSLSSTLTLSKADYEKHKVYACEVTHQGLSSPVTKSFNRGEC
notes: Ho Ab: alteration in both H chains; also called GpH7-B3-20-08L/GpL16-k0
With B2 the Ho/Con_1a was 106 relative (control = 100).

B3: GpH7-B3 variant E269_06M/GpL16-k0 (Ho Ab) (antibody, human IgG1, kappa)
heavy: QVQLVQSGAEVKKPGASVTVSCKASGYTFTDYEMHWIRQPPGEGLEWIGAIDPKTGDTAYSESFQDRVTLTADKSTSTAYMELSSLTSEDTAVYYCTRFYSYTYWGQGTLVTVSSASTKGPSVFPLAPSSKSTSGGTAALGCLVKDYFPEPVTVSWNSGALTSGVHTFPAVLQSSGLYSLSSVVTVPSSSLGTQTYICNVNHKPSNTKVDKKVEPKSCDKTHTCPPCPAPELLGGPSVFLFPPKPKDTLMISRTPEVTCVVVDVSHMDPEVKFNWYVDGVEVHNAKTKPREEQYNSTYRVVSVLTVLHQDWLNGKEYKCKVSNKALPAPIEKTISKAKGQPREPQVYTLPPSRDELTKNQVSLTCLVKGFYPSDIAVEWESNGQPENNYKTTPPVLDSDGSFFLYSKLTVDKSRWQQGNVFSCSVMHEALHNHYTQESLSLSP
light: DIVMTQSPLSLPVTPGEPASISCQASESLVHSNRNTYLHWYLQKPGQSPQLLIYKVSNRFSGVPDRFSGSGSGTDFTLKISRVEAEDVGVYYCSQNTHVPPTFGQGTKVEIERTVAAPSVFIFPPSDEQLKSGTASVVCLLNNFYPREAKVQWKVDNALQSGNSQESVTEQDSKDSTYSLSSTLTLSKADYEKHKVYACEVTHQGLSSPVTKSFNRGEC
notes: as for B1
For B3, the Ho/Con_1a was 101 relative (control = 100).

B4: GpH7-B3 variant A330_09D/GpL16-k0 (Ho Ab) (antibody, human IgG1, kappa)
heavy: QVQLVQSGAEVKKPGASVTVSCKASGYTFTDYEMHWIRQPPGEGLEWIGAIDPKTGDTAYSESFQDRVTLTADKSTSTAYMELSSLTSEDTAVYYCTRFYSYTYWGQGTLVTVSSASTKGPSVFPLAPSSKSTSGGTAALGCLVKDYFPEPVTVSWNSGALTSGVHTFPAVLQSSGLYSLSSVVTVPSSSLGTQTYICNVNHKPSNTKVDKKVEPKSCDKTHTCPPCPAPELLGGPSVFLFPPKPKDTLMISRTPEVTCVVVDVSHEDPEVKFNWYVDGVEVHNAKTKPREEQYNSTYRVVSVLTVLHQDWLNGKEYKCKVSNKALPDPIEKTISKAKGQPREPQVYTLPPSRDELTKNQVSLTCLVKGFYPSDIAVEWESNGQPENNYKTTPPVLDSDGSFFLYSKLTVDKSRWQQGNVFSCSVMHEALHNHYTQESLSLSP
light: DIVMTQSPLSLPVTPGEPASISCQASESLVHSNRNTYLHWYLQKPGQSPQLLIYKVSNRFSGVPDRFSGSGSGTDFTLKISRVEAEDVGVYYCSQNTHVPPTFGQGTKVEIERTVAAPSVFIFPPSDEQLKSGTASVVCLLNNFYPREAKVQWKVDNALQSGNSQESVTEQDSKDSTYSLSSTLTLSKADYEKHKVYACEVTHQGLSSPVTKSFNRGEC
notes: as for B1
In the case of B4, the Ho/Con_1a is reported as 108 relative (control = 100).

B5: GpH7-B3 variant E269_08L/GpL16-k0 (Ho Ab) (antibody, human IgG1, kappa)
heavy: not shown
light: DIVMTQSPLSLPVTPGEPASISCQASESLVHSNRNTYLHWYLQKPGQSPQLLIYKVSNRFSGVPDRFSGSGSGTDFTLKISRVEAEDVGVYYCSQNTHVPPTFGQGTKVEIERTVAAPSVFIFPPSDEQLKSGTASVVCLLNNFYPREAKVQWKVDNALQSGNSQESVTEQDSKDSTYSLSSTLTLSKADYEKHKVYACEVTHQGLSSPVTKSFNRGEC
notes: as for B1
B5 was tested, and the Ho/Con_1a was 101 relative (control = 100).

B6: GpH7-B3 variant I336_01G/GpL16-k0 (Ho Ab) (antibody, human IgG1, kappa)
heavy: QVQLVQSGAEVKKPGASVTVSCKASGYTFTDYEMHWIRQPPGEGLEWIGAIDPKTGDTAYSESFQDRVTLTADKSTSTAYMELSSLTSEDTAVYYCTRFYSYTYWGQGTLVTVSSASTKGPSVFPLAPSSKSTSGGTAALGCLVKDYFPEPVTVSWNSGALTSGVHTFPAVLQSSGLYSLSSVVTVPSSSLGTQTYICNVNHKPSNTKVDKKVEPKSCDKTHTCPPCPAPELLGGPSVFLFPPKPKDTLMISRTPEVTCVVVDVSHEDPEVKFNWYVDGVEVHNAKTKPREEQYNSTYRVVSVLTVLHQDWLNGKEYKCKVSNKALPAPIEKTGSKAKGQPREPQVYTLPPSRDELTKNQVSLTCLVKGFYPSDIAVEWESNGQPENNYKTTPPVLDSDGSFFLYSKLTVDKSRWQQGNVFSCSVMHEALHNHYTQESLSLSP
light: DIVMTQSPLSLPVTPGEPASISCQASESLVHSNRNTYLHWYLQKPGQSPQLLIYKVSNRFSGVPDRFSGSGSGTDFTLKISRVEAEDVGVYYCSQNTHVPPTFGQGTKVEIERTVAAPSVFIFPPSDEQLKSGTASVVCLLNNFYPREAKVQWKVDNALQSGNSQESVTEQDSKDSTYSLSSTLTLSKADYEKHKVYACEVTHQGLSSPVTKSFNRGEC
notes: as for B1
In the case of B6, the Ho/Con_1a is reported as 104 relative (control = 100).

B7: GpH7-B3 variant A327_09D/GpL16-k0 (Ho Ab) (antibody, human IgG1, kappa)
heavy: not shown
light: DIVMTQSPLSLPVTPGEPASISCQASESLVHSNRNTYLHWYLQKPGQSPQLLIYKVSNRFSGVPDRFSGSGSGTDFTLKISRVEAEDVGVYYCSQNTHVPPTFGQGTKVEIERTVAAPSVFIFPPSDEQLKSGTASVVCLLNNFYPREAKVQWKVDNALQSGNSQESVTEQDSKDSTYSLSSTLTLSKADYEKHKVYACEVTHQGLSSPVTKSFNRGEC
notes: as for B1
B7 was tested, and the Ho/Con_1a was 102 relative (control = 100).

B8: GpH7-B3 variant I336_02A/GpL16-k0 (Ho Ab) (antibody, human IgG1, kappa)
heavy: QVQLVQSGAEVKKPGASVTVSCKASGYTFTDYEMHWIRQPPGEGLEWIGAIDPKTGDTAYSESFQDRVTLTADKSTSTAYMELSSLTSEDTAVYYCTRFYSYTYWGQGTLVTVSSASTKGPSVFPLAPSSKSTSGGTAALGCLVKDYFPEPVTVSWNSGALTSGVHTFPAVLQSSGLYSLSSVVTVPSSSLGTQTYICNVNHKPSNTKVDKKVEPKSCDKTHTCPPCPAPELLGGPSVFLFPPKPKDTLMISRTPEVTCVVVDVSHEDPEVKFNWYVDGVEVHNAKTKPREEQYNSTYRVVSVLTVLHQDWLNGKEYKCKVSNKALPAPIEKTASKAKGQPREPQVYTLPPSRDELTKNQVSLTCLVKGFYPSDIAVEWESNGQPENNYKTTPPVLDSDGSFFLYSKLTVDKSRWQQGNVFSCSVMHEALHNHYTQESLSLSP
light: DIVMTQSPLSLPVTPGEPASISCQASESLVHSNRNTYLHWYLQKPGQSPQLLIYKVSNRFSGVPDRFSGSGSGTDFTLKISRVEAEDVGVYYCSQNTHVPPTFGQGTKVEIERTVAAPSVFIFPPSDEQLKSGTASVVCLLNNFYPREAKVQWKVDNALQSGNSQESVTEQDSKDSTYSLSSTLTLSKADYEKHKVYACEVTHQGLSSPVTKSFNRGEC
notes: as for B1
For B8, the Ho/Con_1a was 103 relative (control = 100).

B9: GpH7-B3 variant G236_20W/GpL16-k0 (Ho Ab) (antibody, human IgG1, kappa)
heavy: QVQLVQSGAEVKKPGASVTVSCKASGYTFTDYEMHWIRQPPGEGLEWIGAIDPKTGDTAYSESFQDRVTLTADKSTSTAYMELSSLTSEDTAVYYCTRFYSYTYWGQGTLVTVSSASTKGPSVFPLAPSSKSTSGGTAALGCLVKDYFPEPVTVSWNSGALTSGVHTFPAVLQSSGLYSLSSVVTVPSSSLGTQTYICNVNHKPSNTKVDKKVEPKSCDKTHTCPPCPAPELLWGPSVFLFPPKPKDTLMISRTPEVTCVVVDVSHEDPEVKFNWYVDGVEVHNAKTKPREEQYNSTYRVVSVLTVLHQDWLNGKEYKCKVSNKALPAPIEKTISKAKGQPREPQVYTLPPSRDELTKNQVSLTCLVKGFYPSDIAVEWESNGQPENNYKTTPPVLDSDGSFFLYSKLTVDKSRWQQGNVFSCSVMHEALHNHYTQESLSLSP
light: DIVMTQSPLSLPVTPGEPASISCQASESLVHSNRNTYLHWYLQKPGQSPQLLIYKVSNRFSGVPDRFSGSGSGTDFTLKISRVEAEDVGVYYCSQNTHVPPTFGQGTKVEIERTVAAPSVFIFPPSDEQLKSGTASVVCLLNNFYPREAKVQWKVDNALQSGNSQESVTEQDSKDSTYSLSSTLTLSKADYEKHKVYACEVTHQGLSSPVTKSFNRGEC
notes: as for B1
With B9 the Ho/Con_1a was 104 relative (control = 100).

B10: GpH7-B3 variant E269_04F/GpL16-k0 (Ho Ab) (antibody, human IgG1, kappa)
heavy: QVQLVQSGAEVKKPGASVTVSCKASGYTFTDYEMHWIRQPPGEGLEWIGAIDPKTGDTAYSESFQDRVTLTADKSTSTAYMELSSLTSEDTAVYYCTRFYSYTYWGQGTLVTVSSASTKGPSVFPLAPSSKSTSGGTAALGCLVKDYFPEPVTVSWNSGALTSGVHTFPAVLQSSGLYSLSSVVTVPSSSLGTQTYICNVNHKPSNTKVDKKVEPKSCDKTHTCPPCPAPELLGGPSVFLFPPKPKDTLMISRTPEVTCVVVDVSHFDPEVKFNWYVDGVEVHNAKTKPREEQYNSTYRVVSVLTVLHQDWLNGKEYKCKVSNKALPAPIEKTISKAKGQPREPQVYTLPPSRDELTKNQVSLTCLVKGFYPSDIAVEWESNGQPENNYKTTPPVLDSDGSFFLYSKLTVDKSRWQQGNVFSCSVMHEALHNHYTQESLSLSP
light: DIVMTQSPLSLPVTPGEPASISCQASESLVHSNRNTYLHWYLQKPGQSPQLLIYKVSNRFSGVPDRFSGSGSGTDFTLKISRVEAEDVGVYYCSQNTHVPPTFGQGTKVEIERTVAAPSVFIFPPSDEQLKSGTASVVCLLNNFYPREAKVQWKVDNALQSGNSQESVTEQDSKDSTYSLSSTLTLSKADYEKHKVYACEVTHQGLSSPVTKSFNRGEC
notes: as for B1
In the case of B10, the Ho/Con_1a is reported as 102 relative (control = 100).

B11: GpH7-B3 variant E269_15Y/GpL16-k0 (Ho Ab) (antibody, human IgG1, kappa)
heavy: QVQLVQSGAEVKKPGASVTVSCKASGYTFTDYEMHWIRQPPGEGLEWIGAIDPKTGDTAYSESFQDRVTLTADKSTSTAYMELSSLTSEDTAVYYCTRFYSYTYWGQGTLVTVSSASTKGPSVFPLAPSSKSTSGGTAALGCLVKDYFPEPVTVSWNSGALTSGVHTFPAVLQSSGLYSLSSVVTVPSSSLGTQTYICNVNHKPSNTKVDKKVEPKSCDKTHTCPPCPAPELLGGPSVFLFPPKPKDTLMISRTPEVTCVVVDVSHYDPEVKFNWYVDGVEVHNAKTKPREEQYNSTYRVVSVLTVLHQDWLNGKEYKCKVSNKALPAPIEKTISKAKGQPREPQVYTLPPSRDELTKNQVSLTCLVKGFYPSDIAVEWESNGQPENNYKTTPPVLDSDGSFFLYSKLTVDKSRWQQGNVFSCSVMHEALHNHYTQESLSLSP
light: DIVMTQSPLSLPVTPGEPASISCQASESLVHSNRNTYLHWYLQKPGQSPQLLIYKVSNRFSGVPDRFSGSGSGTDFTLKISRVEAEDVGVYYCSQNTHVPPTFGQGTKVEIERTVAAPSVFIFPPSDEQLKSGTASVVCLLNNFYPREAKVQWKVDNALQSGNSQESVTEQDSKDSTYSLSSTLTLSKADYEKHKVYACEVTHQGLSSPVTKSFNRGEC
notes: as for B1
B11 was tested, and the Ho/Con_1a was 100 relative (control = 100).

B12: GpH7-B3 variant I336_03V/GpL16-k0 (Ho Ab) (antibody, human IgG1, kappa)
heavy: not shown
light: DIVMTQSPLSLPVTPGEPASISCQASESLVHSNRNTYLHWYLQKPGQSPQLLIYKVSNRFSGVPDRFSGSGSGTDFTLKISRVEAEDVGVYYCSQNTHVPPTFGQGTKVEIERTVAAPSVFIFPPSDEQLKSGTASVVCLLNNFYPREAKVQWKVDNALQSGNSQESVTEQDSKDSTYSLSSTLTLSKADYEKHKVYACEVTHQGLSSPVTKSFNRGEC
notes: as for B1
In the case of B12, the Ho/Con_1a is reported as 105 relative (control = 100).

B13: GpH7-B3 variant A330_14T/GpL16-k0 (Ho Ab) (antibody, human IgG1, kappa)
heavy: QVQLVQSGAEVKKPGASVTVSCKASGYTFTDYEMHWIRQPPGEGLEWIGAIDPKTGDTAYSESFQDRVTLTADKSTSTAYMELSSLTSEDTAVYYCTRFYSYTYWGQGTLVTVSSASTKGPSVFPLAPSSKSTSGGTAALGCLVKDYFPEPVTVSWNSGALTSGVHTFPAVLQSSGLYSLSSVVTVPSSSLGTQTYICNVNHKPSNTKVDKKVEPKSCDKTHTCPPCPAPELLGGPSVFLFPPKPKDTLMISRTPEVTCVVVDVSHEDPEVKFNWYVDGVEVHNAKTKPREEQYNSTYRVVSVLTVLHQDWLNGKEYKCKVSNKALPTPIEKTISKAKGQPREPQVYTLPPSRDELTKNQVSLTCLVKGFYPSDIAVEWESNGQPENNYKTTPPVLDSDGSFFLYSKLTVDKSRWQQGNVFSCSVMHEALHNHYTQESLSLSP
light: DIVMTQSPLSLPVTPGEPASISCQASESLVHSNRNTYLHWYLQKPGQSPQLLIYKVSNRFSGVPDRFSGSGSGTDFTLKISRVEAEDVGVYYCSQNTHVPPTFGQGTKVEIERTVAAPSVFIFPPSDEQLKSGTASVVCLLNNFYPREAKVQWKVDNALQSGNSQESVTEQDSKDSTYSLSSTLTLSKADYEKHKVYACEVTHQGLSSPVTKSFNRGEC
notes: as for B1
With B13 the Ho/Con_1a was 105 relative (control = 100).

B14: GpH7-B3 variant I336_04F/GpL16-k0 (Ho Ab) (antibody, human IgG1, kappa)
heavy: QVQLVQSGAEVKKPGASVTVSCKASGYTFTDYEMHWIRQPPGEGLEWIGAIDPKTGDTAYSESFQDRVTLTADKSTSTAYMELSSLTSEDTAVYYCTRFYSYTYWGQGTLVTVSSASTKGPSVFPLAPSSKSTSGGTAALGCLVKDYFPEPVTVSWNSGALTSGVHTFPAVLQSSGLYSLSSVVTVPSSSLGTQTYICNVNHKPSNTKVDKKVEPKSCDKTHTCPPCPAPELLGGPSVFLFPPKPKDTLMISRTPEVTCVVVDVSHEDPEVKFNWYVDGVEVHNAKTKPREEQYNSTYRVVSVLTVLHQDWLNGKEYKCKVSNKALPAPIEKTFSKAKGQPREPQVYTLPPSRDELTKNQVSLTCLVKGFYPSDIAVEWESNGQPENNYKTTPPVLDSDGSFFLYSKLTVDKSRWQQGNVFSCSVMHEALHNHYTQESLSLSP
light: DIVMTQSPLSLPVTPGEPASISCQASESLVHSNRNTYLHWYLQKPGQSPQLLIYKVSNRFSGVPDRFSGSGSGTDFTLKISRVEAEDVGVYYCSQNTHVPPTFGQGTKVEIERTVAAPSVFIFPPSDEQLKSGTASVVCLLNNFYPREAKVQWKVDNALQSGNSQESVTEQDSKDSTYSLSSTLTLSKADYEKHKVYACEVTHQGLSSPVTKSFNRGEC
notes: as for B1
With B14 the Ho/Con_1a was 104 relative (control = 100).

B15: GpH7-B3 variant E333_01G/GpL16-k0 (Ho Ab) (antibody, human IgG1, kappa)
heavy: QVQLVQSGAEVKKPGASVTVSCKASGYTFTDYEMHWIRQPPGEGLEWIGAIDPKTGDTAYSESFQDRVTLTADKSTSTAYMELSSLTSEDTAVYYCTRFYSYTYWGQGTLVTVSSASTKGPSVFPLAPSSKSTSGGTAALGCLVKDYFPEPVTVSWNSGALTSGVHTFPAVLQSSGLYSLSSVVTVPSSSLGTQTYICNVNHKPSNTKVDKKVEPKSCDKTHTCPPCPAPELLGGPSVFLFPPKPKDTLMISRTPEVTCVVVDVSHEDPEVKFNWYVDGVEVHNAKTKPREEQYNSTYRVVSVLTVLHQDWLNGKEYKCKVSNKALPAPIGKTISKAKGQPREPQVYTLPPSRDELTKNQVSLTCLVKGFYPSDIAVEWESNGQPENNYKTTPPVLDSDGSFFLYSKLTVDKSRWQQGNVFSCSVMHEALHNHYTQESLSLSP
light: DIVMTQSPLSLPVTPGEPASISCQASESLVHSNRNTYLHWYLQKPGQSPQLLIYKVSNRFSGVPDRFSGSGSGTDFTLKISRVEAEDVGVYYCSQNTHVPPTFGQGTKVEIERTVAAPSVFIFPPSDEQLKSGTASVVCLLNNFYPREAKVQWKVDNALQSGNSQESVTEQDSKDSTYSLSSTLTLSKADYEKHKVYACEVTHQGLSSPVTKSFNRGEC
notes: as for B1
In the case of B15, the Ho/Con_1a is reported as 100 relative (control = 100).

B16: GpH7-B3 variant E333_13S/GpL16-k0 (Ho Ab) (antibody, human IgG1, kappa)
heavy: not shown
light: DIVMTQSPLSLPVTPGEPASISCQASESLVHSNRNTYLHWYLQKPGQSPQLLIYKVSNRFSGVPDRFSGSGSGTDFTLKISRVEAEDVGVYYCSQNTHVPPTFGQGTKVEIERTVAAPSVFIFPPSDEQLKSGTASVVCLLNNFYPREAKVQWKVDNALQSGNSQESVTEQDSKDSTYSLSSTLTLSKADYEKHKVYACEVTHQGLSSPVTKSFNRGEC
notes: as for B1
In the case of B16, the Ho/Con_1a is reported as 101 relative (control = 100).
